# From patent US20080268015A1 (AFFINERGY, published 2008)
# Primed or numbered codes have the meaning given here. Where no end group is shown, it is not given here. [ ]: non-standard residue; d: D form. PEG10′ = non-peptide PEG10 spacer
# Molecular target: BMP2 (Bone Morphogenetic Protein 2) (UniProt P12643 283-396)
# Experiment: ELISA: composition (10 uM) pre-bound to DBM, serial dilutions of BMP-2, detected with anti-BMP-2 antibody
# Procedure: A binding assay was performed using ELISA; and the resultant absorbance observed across the concentration range of pharmaceutically active agent yielded a binding curve and rough dissociation constant of the composition which were used to calculate an EC50. Appropriate controls, including absence of the composition, were included in the assay.
# As a specific example, DBM was placed in a microtiter plate at a concentration of 3 mg equivalents per well, and then the wells and DBM were blocked with buffer containing 1% BSA for 1 hour at room temperature. The buffer containing 1% BSA was then aspirated from each well, and added to each of the wells was 100 μl of buffer containing 10 μM of the respective composition embodiments. The microtiter plates were incubated for 1 hour at room temperature on a plate shaker. The DBM was then allowed to settle, and the buffer was then aspirated from the wells. The DBM was washed three times with buffer-T, and then serial dilutions of BMP-2 were added to the wells in 100 μl of buffer. The microtiter plates were then incubated for 1 hour at room temperature on a plate shaker. The DBM, having composition bound thereto, was then allowed to settle, and then buffer was aspirated from the wells. The DBM-composition combination was washed three times with buffer-T. Commercial murine anti-BMP-2 antibody was diluted 1:1000 in buffer containing 1% BSA, and 100 μl was added per well. The plates were incubated for 30 minutes at room temperature on a plate shaker, and then the wash step was repeated. Commercial anti-mouse antibody labeled with alkaline phosphatase was diluted 1:1000 in buffer containing 1% BSA, and 100 μl was added per well. The plates were incubated for 30 minutes at room temperature on a plate shaker, and then the wash step was repeated. Added to each well was 200 μl of substrate pNPP, and the plates were incubated at room temperature on a plate shaker to develop the assay. 100 μl of solution was removed from each well and added to a respective well of a new microtiter plate which was then read on a spectrophotometer and the absorbance was recorded at 405 nm. An estimate of the relative affinity, binding specificity, EC50 of the composition for pharmaceutically active agent can be made by determining the concentration of peptide that provides one-half the maximal signal in the assay.
# Sequence of BMP2 (Bone Morphogenetic Protein 2) (P12643 283-396 limits assumed): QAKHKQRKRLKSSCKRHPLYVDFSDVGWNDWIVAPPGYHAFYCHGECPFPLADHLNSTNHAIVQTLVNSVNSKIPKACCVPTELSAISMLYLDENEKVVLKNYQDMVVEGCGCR
row,EC50 [nM],Binder
1,< 10,SFGSWWWGSGAASSRG[PEG10′]GGGAWEAFSSLSGSRVGSSGK (also: C-terminal amino linker biotinylated)
2,< 10,"SWWGFWNGSAAPVWSRGSSGAGAWEAFSSLSGSRVGSSGK (also: biotin linked to C-terminal GSSGK linker, site not given here)"
3,< 10,"SWWGFWNGSAAPVWSRGSSGAGALGFPLKGEVVEGWAGSSGK (also: biotin linked to C-terminal GSSGK linker, site not given here)"
4,< 10,SFGSWWWGSGAASSRG[PEG10′]AGAWEAFSSLSGSRVGSSGK (also: C-terminal amino linker biotinylated)
5,< 10,"SFGSWWWGSGAASSRGSSGGGALGFPLKGEVVEGWAGSSGK (also: biotin linked to C-terminal GSSGK linker, site not given here)"
6,< 10,"SWWGFWNGSAAPVWSRGSSESAGAWEAFSSLSGSRVGSSGK (also: biotin linked to C-terminal GSSGK linker, site not given here)"
